Source: patent US20200197536A1

Target: Met (hepatocyte growth factor receptor) on Hep3B cells (human) (UniProt P08581)
Assay: flow cytometry saturation binding of Alexa Fluor 647-labeled protocells (0.015 wt % MC40, about 6 peptides/particle) on cytochalasin D-treated Hep3B cells; non-specific binding measured with saturating unlabeled hepatocyte growth factor and subtracted

Sequence of UniProt P08581 (P08581 25-1390): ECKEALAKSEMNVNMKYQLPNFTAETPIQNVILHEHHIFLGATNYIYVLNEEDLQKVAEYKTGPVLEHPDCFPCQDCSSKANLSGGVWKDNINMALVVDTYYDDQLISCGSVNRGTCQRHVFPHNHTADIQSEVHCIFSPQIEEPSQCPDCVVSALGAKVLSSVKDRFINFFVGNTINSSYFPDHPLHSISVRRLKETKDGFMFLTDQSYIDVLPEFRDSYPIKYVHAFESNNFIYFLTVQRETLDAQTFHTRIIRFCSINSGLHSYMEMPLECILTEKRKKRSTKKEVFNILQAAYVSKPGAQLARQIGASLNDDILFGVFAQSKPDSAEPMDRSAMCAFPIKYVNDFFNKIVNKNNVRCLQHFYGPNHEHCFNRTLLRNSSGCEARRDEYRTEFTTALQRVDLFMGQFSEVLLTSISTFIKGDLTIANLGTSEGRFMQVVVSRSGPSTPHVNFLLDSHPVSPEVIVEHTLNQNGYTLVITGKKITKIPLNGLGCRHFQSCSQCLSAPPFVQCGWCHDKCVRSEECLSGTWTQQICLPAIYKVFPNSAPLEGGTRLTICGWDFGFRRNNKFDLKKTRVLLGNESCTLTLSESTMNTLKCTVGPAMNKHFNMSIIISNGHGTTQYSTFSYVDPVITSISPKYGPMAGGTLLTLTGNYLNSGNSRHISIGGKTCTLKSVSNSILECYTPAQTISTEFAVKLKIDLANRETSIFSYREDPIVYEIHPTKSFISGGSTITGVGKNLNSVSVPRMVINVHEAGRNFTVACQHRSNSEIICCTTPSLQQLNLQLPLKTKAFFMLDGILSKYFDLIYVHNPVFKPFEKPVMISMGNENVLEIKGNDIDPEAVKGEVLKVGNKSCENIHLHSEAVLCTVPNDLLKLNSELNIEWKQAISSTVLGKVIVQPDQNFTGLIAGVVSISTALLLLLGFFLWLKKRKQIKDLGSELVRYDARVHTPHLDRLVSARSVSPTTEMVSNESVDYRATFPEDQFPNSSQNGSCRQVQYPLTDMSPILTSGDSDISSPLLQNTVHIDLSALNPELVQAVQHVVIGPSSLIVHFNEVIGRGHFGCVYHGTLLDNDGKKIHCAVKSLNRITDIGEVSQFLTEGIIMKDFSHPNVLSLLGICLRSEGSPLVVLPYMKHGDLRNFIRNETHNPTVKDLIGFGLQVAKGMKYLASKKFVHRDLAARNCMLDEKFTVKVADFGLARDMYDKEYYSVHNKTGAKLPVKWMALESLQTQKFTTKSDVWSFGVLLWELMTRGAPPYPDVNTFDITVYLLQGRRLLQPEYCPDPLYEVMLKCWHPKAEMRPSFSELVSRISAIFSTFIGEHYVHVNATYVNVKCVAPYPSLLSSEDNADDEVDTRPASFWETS

Kd: 1.05 nM
Substance: MC40-targeted protocells (mesoporous silica nanoparticle-supported lipid bilayer modified with 0.015 wt % MC40 targeting peptide)
